Experimental data published in patent US6531296B1, “Nuclear tyrosine kinase Rak” (The University of North Carolina at Chapel Hill, priority 1995, dated 2003).
Numbering of substitutions follows the chain as printed.

How the values were obtained:
[1] = molecular target: T1, RbABC (Rb amino acids 379-928, A/B pocket and carboxy-terminus) (Homo sapiens, UniProt P06400); assay: Rb in vitro binding assay, GST-RbABC; conditions: for Rb binding of Rak deletion forms: Rb fusion protein not specified
T1 construct: Rb fusion proteins encoding amino acids 379-928 (RbABC); made in house; host or cells: pGEX-4T plasmid
T1 sequence (P06400 379-928): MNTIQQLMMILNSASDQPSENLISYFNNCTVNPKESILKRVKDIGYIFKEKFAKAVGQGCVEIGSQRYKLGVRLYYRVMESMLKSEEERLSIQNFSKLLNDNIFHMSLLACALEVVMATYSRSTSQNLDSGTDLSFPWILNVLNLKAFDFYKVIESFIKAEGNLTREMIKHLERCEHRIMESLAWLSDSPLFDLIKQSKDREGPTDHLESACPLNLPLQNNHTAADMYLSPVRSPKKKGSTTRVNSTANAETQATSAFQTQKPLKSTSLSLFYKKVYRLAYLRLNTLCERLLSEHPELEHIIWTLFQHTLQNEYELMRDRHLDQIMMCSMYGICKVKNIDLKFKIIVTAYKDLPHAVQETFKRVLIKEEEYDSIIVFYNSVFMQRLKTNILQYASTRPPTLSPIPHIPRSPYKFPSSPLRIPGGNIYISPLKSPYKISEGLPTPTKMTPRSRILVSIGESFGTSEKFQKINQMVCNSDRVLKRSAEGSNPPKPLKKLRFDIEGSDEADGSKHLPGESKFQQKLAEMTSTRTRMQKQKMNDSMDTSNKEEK
Description: (§1) Affinity Precipitations. DNA fragments encoding the amino terminal region of Rak were prepared using the polymerase chain reaction with Pyrococcus furiosus DNA polymerase (Stratagene), and cloned into the pGEX-4T plasmid (Pharmacia). Rb fusion proteins encoding amino acids 379-928 (RbABC, containing the A/B pocket region and the COOH-terminal domain) and 780-928 (RbC for COOH terminal domain only), were prepared similarly. The GST fusion proteins were induced and purified according to the manufacturer's instructions, and were analyzed by SDS-PAGE to ensure that an equal amount of protein was used for the affinity precipitation procedure.
The same procedure was followed for Rb in vitro binding assays, except that the Rb-GST fusion proteins were incubated in the in vitro translated forms of Rak in NP-40 buffer containing 0.5% fraction V bovine serum albumin (Boehringer Mannheim). After three washes with the same buffer, bound proteins were analyzed by SDS-PAGE and detected by autoradiography. Rak was in vitro translated using the TnT-coupled transcription/translation system (Promega) with 2 ug of the pAlt-Rak plasmid. The Rak (1-152) construct was prepared by digesting the pAlt-Rak plasmid with EcoRI to obtain the 5′ EcoRI fragment of Rak.
An in vitro binding reaction was then used to further identify the essential components for the Rak-Rb interaction. In vitro translated Rak was incubated with two Rb-GST fusion proteins, where one encoded amino acids 379-928, spanning the A/B pocket and carboxy-terminus (RbABC), while the other fusion protein encoded amino acids 780-928, and represented only the carboxy-terminus (RbC). […] As a control, the Src protein was in vitro translated and subjected to the same binding reaction, and no binding of Src to any portion of Rb was detected (data not shown).

[2] = molecular target: T2, RbC (Rb amino acids 780-928, carboxy-terminus) (Homo sapiens, UniProt P06400); assay: Rb in vitro binding assay, GST-RbC; conditions: in vitro translated protein
T2 construct: the other fusion protein encoded amino acids 780-928; made in house; host or cells: pGEX-4T plasmid
T2 sequence (P06400 780-928): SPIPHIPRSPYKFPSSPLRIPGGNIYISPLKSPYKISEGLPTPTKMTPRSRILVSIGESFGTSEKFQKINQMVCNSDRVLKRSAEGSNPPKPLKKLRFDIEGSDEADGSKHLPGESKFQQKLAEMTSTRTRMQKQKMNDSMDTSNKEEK
Description: as §1
The same procedure was followed for Rb in vitro binding assays, except that the Rb-GST fusion proteins were incubated in the in vitro translated forms of Rak in NP-40 buffer containing 0.5% fraction V bovine serum albumin (Boehringer Mannheim). After three washes with the same buffer, bound proteins were analyzed by SDS-PAGE and detected by autoradiography. […]
An in vitro binding reaction was then used to further identify the essential components for the Rak-Rb interaction. […] As a control, the Src protein was in vitro translated and subjected to the same binding reaction, and no binding of Src to any portion of Rb was detected (data not shown).

CSK (p50csk) = assay: In vitro kinase assay: phosphorylation of Rak carboxy-terminal peptides by CSK; assay type: biochemical; conditions: relative to wild-type peptide for the mutants
Description: Peptide, Preparation for Phosphorylation. Initially, the OAg was tested for phosphorylation by CSK in an in vitro kinase reaction and was phosphorylated. To further assess which tyrosine was phosphorylated, each of the four tyrosines in the substrate peptide were mutated to phenylalanine by the double-stranded, site-directed mutagenesis method (Deng and Nickoloff. Site-directed mutagenesis of virtually any plasmid by eliminating a unique site. Anal. Biochem., 200:81-88 (1992)). The plasmid was denatured by heating to 100° C. for 5 min and then annealed to a mutagenic primer and a second primer converting an Af/AII site on the plasmid to a Bg/II site. The mutagenic primers for the four tyrosines were: Y45Uf, 5′-[…]-3′ (SEQ ID NO:9); Y163F, 5′-[…]-3′ (SEQ ID NO:10); Y490F, 5′-TGAAGAC-TTTTTTGAAACAG-3′ (SEQ ID NO:11); and Y497F, 5′-[…]-3′ (SEQ ID NO:12).
Purified μ50^csk and Enzyme Assays. p50^csk was produced in S/9 cells from a Baculovirus vector containing the full-length csk cDNA (Okada et al., J. Biol. Chem; 264:20886-20893(1989)), purified according to Murphy et al. (Mol. Cell. Biol., 13:5290-5300 (1993), and mixed with the different peptides of Rak. These peptides correspond to the last 62 amino acids of the kinase, containing four tyrosine residues (Y450, Y463, Y490, and […]), and mutant peptides where each of the four tyrosines was […]. The phosphorylation of the native peptide was compared to the that of the mutant peptides. For the in vitro kinase assay, different amounts of p50^csk were mixed with different amount of the peptides in a reaction buffer (10 mM HEPES (pH 7.4) 10 mM MnCl21. Four μg bovine serum albumin were added to the 20-μl mixture, and the reaction was initiated with the addition of AIP to 1 μm and 10 μCl of 1 γ-^32P)ATP (3000 Ci/mmol; Amersham). Tubes were incubated at 30° C. for 15 min, and the reaction was stopped by the addition of SDS-PAGE sample buffer. The samples were boiled and analyzed on 15% SDS-PAGE gels, which were fixed, stained, and exposed to film at […].
The Carboxy Terminus of Rak Is Phosphorylated by CSK. Since CSK phosphorylates the carboxy terminal tyrosines of several other Src-related kinases, the ability of CSK to phosphorylate a recombinant carboxy-terminal peptide of Rak was analyzed. […] Since this peptide contained four tyrosines at positions 450, 463, 490, and 497, each tyrosine was individually mutated to phenylalanine and then the peptides were assayed for phosphorylation by CSK. […] Indeed, this residue corresponds to the CSK phosphorylation site for the other Src family members with regard to its localization in regard to the kinase domain, although the sequence context of this tyrosine differs from that of the other Src-like kinases.

B1: full-length Rak: in vitro translated full-length Rak protein (SEQ ID NO:2) (protein)
chain: MSNICQRLWEYLEPYLPCLSTEADKSTVIENPGALCSPQSQRHGHYFVALFDYHAPTAEELSFRAGDKLQVLDTLHEGWWFARHLEKRRDGSSQQLQGYIPSNYVAEDRSLQAEAWFFGAIRRSDAEKQLLYSENKTGSFLIRESESQKGEFSLSVLDGAVVKHYRIKRLDEGGFFLTRRRIFSTLNEFVSHYTKTSDGLCVKLGKPCLKIQVPAPFDLSYKTVDQWEIDRNSIQLLKRLGSGQFGEVWEGLWNNTTPVAVKTLKPGSMDPNDFLREAQIMKNLRHPKLIQLYAVCTLEDPIYIITELMRHGSLQEYLQNDTGSKIHLTQQVDMAAQVASGMAYLESRNYIHRDLAARNVLVGEHNIYKVADFGLARVFKVDNEDIYESRHEIKLPVKWTAPEAIRSNKFSIKSDVWSFGILLYEIITYGKMPYSGMTGAQVIQMLAQNYRLPQPSNCPQQFYNIMLECWNAEPKERPTFETLRWKLEDYFETDSSYSDANNFIR
- binding to RbABC fusion protein ([1]; in vitro translated protein, SDS-PAGE and autoradiography): bound efficiently
- binding to RbC protein, fold less than to RbABC [2]: approximately 5 fold

B2: Rak with amino acids 1-46 deleted: Rak lacking the unique N-terminal region (LPCLSTE sequence removed) (protein, UniProt P42685 47-505, looked up, fragment)
chain: FVALFDYQARTAEDLSFRAGDKLQVLDTLHEGWWFARHLEKRRDGSSQQLQGYIPSNYVAEDRSLQAEPWFFGAIGRSDAEKQLLYSENKTGSFLIRESESQKGEFSLSVLDGAVVKHYRIKRLDEGGFFLTRRRIFSTLNEFVSHYTKTSDGLCVKLGKPCLKIQVPAPFDLSYKTVDQWEIDRNSIQLLKRLGSGQFGEVWEGLWNNTTPVAVKTLKPGSMDPNDFLREAQIMKNLRHPKLIQLYAVCTLEDPIYIITELMRHGSLQEYLQNDTGSKIHLTQQVDMAAQVASGMAYLESRNYIHRDLAARNVLVGEHNIYKVADFGLARVFKVDNEDIYESRHEIKLPVKWTAPEAIRSNKFSIKSDVWSFGILLYEIITYGKMPYSGMTGAQVIQMLAQNYRLPQPSNCPQQFYNIMLECWNAEPKERPTFETLRWKLEDYFETDSSYSDANNFIR
- Rb binding of Rak deletion forms [1]: no change in Rb binding

B3: wild-type peptide: hexahistidine fusion protein containing the 62 carboxy-terminal amino acids of Rak (protein, UniProt P42685 444-505, looked up, fragment)
chain: QMLAQNYRLPQPSNCPQQFYNIMLECWNAEPKERPTFETLRWKLEDYFETDSSYSDANNFIR
modifications: hexahistidine tag
notes: hexahistidine fusion protein containing the 62 carboxy-terminal amino acids of Rak
- phosphorylation by CSK (CSK (p50csk)): readily phosphorylated
- phosphorylation by CSK (CSK (p50csk); listed as OAg): phosphorylated

B4: mutant at position 490: 62-amino-acid carboxy-terminal Rak peptide with tyrosine 490 mutated to phenylalanine (protein, UniProt P42685 444-505, looked up, variant Y490F)
chain: B3 chain with Y47F
modifications: C-terminal 62 residues His tag
notes: 62-amino-acid carboxy-terminal Rak peptide with tyrosine 490 mutated to phenylalanine
- phosphorylation by CSK (CSK (p50csk)): about one-half

B5: 497 mutant: 62-amino-acid carboxy-terminal Rak peptide with tyrosine 497 mutated to phenylalanine (protein, UniProt P42685 444-505, looked up, variant Y497F)
chain: B3 chain with Y54F
modifications: C-terminal 62 residues His tag
notes: 62-amino-acid carboxy-terminal Rak peptide with tyrosine 497 mutated to phenylalanine
- phosphorylation by CSK (CSK (p50csk)): barely detectable

B6: mutant at position 450: 62-amino-acid carboxy-terminal Rak peptide with tyrosine 450 mutated to phenylalanine (protein, UniProt P42685 444-505, looked up, variant Y450F)
chain: B3 chain with Y7F
modifications: C-terminal 62 residues His tag
notes: 62-amino-acid carboxy-terminal Rak peptide with tyrosine 450 mutated to phenylalanine
- phosphorylation by CSK (CSK (p50csk)): about one-half

B7: Rak (amino acids 1-152): in vitro translated amino-terminal fragment of Rak with unique amino-terminal region and SH3 domain (protein, UniProt P42685 1-152, looked up, fragment)
chain: MSNICQRLWEYLEPYLPCLSTEADKSTVIENPGALCSPQSQRHGHYFVALFDYQARTAEDLSFRAGDKLQVLDTLHEGWWFARHLEKRRDGSSQQLQGYIPSNYVAEDRSLQAEPWFFGAIGRSDAEKQLLYSENKTGSFLIRESESQKGEF
- less efficiency of binding to RbABC fusion protein ([1]; compared with full-length Rak): approximately 30%
- binding to RbC protein [2]: no longer detectable

B8: Rak with amino acids 1-110 deleted: Rak lacking the unique N-terminal region and the SH3 domain (protein, UniProt P42685 111-505, looked up, fragment)
chain: LQAEPWFFGAIGRSDAEKQLLYSENKTGSFLIRESESQKGEFSLSVLDGAVVKHYRIKRLDEGGFFLTRRRIFSTLNEFVSHYTKTSDGLCVKLGKPCLKIQVPAPFDLSYKTVDQWEIDRNSIQLLKRLGSGQFGEVWEGLWNNTTPVAVKTLKPGSMDPNDFLREAQIMKNLRHPKLIQLYAVCTLEDPIYIITELMRHGSLQEYLQNDTGSKIHLTQQVDMAAQVASGMAYLESRNYIHRDLAARNVLVGEHNIYKVADFGLARVFKVDNEDIYESRHEIKLPVKWTAPEAIRSNKFSIKSDVWSFGILLYEIITYGKMPYSGMTGAQVIQMLAQNYRLPQPSNCPQQFYNIMLECWNAEPKERPTFETLRWKLEDYFETDSSYSDANNFIR
- Rb binding of Rak deletion forms [1]: minimally detectable
